From publication PMC12222023 (Nature, 2024)

Experiments:
[1] = target: T1, His-tagged SIRT1(E230K), bacterially expressed (human, UniProt Q96EB6 1-747, E230K); test: SEC
T1 sequence (looked up): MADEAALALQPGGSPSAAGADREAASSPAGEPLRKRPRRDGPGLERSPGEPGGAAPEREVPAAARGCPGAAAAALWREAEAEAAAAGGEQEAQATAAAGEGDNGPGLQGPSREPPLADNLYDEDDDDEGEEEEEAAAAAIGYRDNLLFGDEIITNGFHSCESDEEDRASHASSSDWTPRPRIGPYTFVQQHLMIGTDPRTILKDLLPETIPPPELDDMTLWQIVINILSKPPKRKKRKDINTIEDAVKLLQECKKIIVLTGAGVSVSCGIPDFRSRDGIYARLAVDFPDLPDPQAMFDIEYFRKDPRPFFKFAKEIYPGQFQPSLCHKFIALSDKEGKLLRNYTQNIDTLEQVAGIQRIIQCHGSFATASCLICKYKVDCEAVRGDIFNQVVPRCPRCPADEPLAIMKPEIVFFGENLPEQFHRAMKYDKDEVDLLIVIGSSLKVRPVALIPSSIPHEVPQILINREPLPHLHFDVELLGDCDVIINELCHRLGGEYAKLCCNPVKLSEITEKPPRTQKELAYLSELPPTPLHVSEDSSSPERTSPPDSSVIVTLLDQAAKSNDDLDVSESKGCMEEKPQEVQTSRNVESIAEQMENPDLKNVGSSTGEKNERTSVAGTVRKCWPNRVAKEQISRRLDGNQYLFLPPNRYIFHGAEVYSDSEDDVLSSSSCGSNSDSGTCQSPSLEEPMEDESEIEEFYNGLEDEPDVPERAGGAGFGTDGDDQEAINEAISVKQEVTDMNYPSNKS

[2] = target: T2, His-tagged SIRT1, bacterially expressed (human, UniProt Q96EB6 1-747); test: SEC
T2 sequence (looked up): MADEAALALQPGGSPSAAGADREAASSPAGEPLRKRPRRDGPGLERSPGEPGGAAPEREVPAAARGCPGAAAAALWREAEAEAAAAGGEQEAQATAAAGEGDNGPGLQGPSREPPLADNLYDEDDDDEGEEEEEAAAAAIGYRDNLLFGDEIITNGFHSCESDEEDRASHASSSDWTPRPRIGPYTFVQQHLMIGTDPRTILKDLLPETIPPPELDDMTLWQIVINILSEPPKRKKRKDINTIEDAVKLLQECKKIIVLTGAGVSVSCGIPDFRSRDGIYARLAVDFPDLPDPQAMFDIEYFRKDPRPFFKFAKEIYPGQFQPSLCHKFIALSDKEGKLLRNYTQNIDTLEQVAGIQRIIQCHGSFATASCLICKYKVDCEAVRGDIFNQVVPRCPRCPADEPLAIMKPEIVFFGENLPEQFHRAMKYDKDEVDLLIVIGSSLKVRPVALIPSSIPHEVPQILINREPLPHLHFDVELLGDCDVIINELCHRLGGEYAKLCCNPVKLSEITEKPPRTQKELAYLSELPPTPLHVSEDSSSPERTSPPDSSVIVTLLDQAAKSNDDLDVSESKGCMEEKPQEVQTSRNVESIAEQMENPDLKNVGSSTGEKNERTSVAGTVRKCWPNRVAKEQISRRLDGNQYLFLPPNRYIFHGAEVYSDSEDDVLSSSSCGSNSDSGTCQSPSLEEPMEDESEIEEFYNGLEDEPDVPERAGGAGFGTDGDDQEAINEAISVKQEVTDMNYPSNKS

B1: His-tagged TULP3, bacterially expressed (natural protein, human, UniProt O75386 1-442, looked up)
chain: MEASRCRLSPSGDSVFHEEMMKMRQAKLDYQRLLLEKRQRKKRLEPFMVQPNPEARLRRAKPRASDEQTPLVNCHTPHSNVILHGIDGPAAVLKPDEVHAPSVSSSVVEEDAENTVDTASKPGLQERLQKHDISESVNFDEETDGISQSACLERPNSASSQNSTDTGTSGSATAAQPADNLLGDIDDLEDFVYSPAPQGVTVRCRIIRDKRGMDRGLFPTYYMYLEKEENQKIFLLAARKRKKSKTANYLISIDPVDLSREGESYVGKLRSNLMGTKFTVYDRGICPMKGRGLVGAAHTRQELAAISYETNVLGFKGPRKMSVIIPGMTLNHKQIPYQPQNNHDSLLSRWQNRTMENLVELHNKAPVWNSDTQSYVLNFRGRVTQASVKNFQIVHKNDPDYIVMQFGRVADDVFTLDYNYPLCAVQAFGIGLSSFDSKLACE
binding result [1]: binds

B2: His-tagged TULP3(4G), bacterially expressed (natural protein, human, UniProt O75386 1-442, looked up)
chain: MEASRCRLSPSGDSVFHEEMMKMRQAKLDYQRLLLEKRQRKKRLEPFMVQPNPEARLRRAKPRASDEQTPLVNCHTPHSNVILHGIDGPAAVLKPDEVHAPSVSSSVVEEDAENTVDTASKPGLQERLQKHDISESVNFDEETDGISQSACLERPNSASSQNSTDTGTSGSATAAQPADNLLGDIDDLEDFVGSGAPQGVTVRCRIIRDKRGMDRGLFPTYYMYLEKEENQKIFLLAARKRKKSKTANYLISIDPVDLSREGESYVGKLRSNLMGTKFTVYDRGICPMKGRGLVGAAHTRQELAAISYETNVLGFKGPRKMSVIIPGMTLNHGQIGYQPQNNHDSLLSRWQNRTMENLVELHNKAPVWNSDTQSYVLNFRGRVTQASVKNFQIVHKNDPDYIVMQFGRVADDVFTLDYNYPLCAVQAFGIGLSSFDSKLACE
binding result [2]: binds
